What follows are binders tested against ETS1:RUNX1 (Homo sapiens, UniProt P14921;Q01196 full;full) (assay: gcPBM; 1 nM ETS1 + 25 nM RUNX1, anti-ETS1 signal, normalised). Conditions: tags: N-terminal GST (pDEST15), kept (PMC6008103); copies: 1;1; label: surface-attached array probe.
Chain of ETS1:RUNX1 (P14921 whole entry, chain 1 of 2): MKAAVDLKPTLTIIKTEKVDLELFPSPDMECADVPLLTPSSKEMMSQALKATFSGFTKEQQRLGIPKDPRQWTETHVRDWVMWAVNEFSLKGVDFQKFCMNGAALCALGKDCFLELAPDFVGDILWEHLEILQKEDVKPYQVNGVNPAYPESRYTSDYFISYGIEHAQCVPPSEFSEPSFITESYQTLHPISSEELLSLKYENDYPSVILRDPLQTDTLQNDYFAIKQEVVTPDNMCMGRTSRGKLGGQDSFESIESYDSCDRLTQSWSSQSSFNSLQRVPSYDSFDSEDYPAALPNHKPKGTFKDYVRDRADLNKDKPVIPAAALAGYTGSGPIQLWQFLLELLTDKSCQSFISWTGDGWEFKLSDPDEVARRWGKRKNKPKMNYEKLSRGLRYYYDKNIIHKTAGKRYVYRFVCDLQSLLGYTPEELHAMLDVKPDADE
Chain of ETS1:RUNX1 (Q01196 whole entry, chain 2 of 2): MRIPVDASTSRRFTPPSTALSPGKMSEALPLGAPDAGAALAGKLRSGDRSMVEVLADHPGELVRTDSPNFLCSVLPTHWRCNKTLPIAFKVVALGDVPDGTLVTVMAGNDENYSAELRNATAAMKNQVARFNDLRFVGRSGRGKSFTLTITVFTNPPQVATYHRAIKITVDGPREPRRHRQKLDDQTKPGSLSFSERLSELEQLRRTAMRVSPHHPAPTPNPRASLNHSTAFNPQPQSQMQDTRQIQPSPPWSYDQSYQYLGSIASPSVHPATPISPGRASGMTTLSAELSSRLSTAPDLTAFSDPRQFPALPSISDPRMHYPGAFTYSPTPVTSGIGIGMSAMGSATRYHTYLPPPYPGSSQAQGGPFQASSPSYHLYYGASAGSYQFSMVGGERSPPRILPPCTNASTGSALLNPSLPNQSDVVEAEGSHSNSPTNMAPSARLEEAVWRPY

| Binder | binding signal |
| --- | --- |
| Table S2 A row 328 (dsDNA) DNA 1: AGTAGAGGAGGAAGTTAAATGTGGTTTTCTGGGTGG DNA 2: CCACCCAGAAAACCACATTTAACTTCCTCCTCTACT | 2960 PBM fluorescence, median of replicate spots |
| Table S2 A row 464 (dsDNA) DNA 1: AGCGACAGCGGATGCTCTCTGGCCGCAACATTCTTT DNA 2: AAAGAATGTTGCGGCCAGAGAGCATCCGCTGTCGCT | 2940 PBM fluorescence, median of replicate spots |
| Table S2 A row 276 (dsDNA) DNA 1: CAGCTGACAGGAAGGAGAGAACCACAGACAGTGCGA DNA 2: TCGCACTGTCTGTGGTTCTCTCCTTCCTGTCAGCTG | 2270 PBM fluorescence, median of replicate spots |
| Table S2 A row 1340 (dsDNA) DNA 1: CATTTCAGTCCAGGATGTGGGTGCACACACCGCTTC DNA 2: GAAGCGGTGTGTGCACCCACATCCTGGACTGAAATG | 2860 PBM fluorescence, median of replicate spots |
| Table S2 A row 101 (dsDNA) DNA 1: GAGGGACAGGATGCCGCCAGGAACCACAAGAGCTTC DNA 2: GAAGCTCTTGTGGTTCCTGGCGGCATCCTGTCCCTC | 2530 PBM fluorescence, median of replicate spots |
| Table S2 A row 108 (dsDNA) DNA 1: CACTTCCTGTCAAAGCCAGTTCCTTAACCGCTTAGG DNA 2: CCTAAGCGGTTAAGGAACTGGCTTTGACAGGAAGTG | 2540 PBM fluorescence, median of replicate spots |
| Table S2 A row 1415 (dsDNA) DNA 1: AGGCTGTGTGAAGGATGTGGTCAGGCGGAGGCCAGG DNA 2: CCTGGCCTCCGCCTGACCACATCCTTCACACAGCCT | 2710 PBM fluorescence, median of replicate spots |
| Table S2 A row 789 (dsDNA) DNA 1: TCCCACTGCGACGGAAGCACAGCGGTTAAGATTGCA DNA 2: TGCAATCTTAACCGCTGTGCTTCCGTCGCAGTGGGA | 2460 PBM fluorescence, median of replicate spots |
| Table S2 A row 1108 (dsDNA) DNA 1: CATGGGGAGGAGGAAGTGGTGGCGGCCGCAGGCCAG DNA 2: CTGGCCTGCGGCCGCCACCACTTCCTCCTCCCCATG | 2880 PBM fluorescence, median of replicate spots |
| Table S2 A row 762 (dsDNA) DNA 1: CAGAAAGAGGAAATGATGCGAGTCCACACCGCAGGC DNA 2: GCCTGCGGTGTGGACTCGCATCATTTCCTCTTTCTG | 2620 PBM fluorescence, median of replicate spots |
| Table S2 A row 240 (dsDNA) DNA 1: CAGGCTCGCCACAGGGGAAGTGGTTAGGGCGGGTCC DNA 2: GGACCCGCCCTAACCACTTCCCCTGTGGCGAGCCTG | 2340 PBM fluorescence, median of replicate spots |
| Table S2 A row 1686 (dsDNA) DNA 1: TGAGCCTTGGAAGGAAATGATTCACCACAATACTGT DNA 2: ACAGTATTGTGGTGAATCATTTCCTTCCAAGGCTCA | 2590 PBM fluorescence, median of replicate spots |
| Table S2 A row 791 (dsDNA) DNA 1: CGGCAGGCAAGCAGGAAACCGCGAGTGGAGAAAGGG DNA 2: CCCTTTCTCCACTCGCGGTTTCCTGCTTGCCTGCCG | 2990 PBM fluorescence, median of replicate spots |
| Table S2 A row 1256 (dsDNA) DNA 1: AGCCGTCATTCAGGATGTGGTGACAGACATGGAGAC DNA 2: GTCTCCATGTCTGTCACCACATCCTGAATGACGGCT | 2490 PBM fluorescence, median of replicate spots |
| Table S2 A row 340 (dsDNA) DNA 1: CAGAGCAGAGAGGAAGTGGTGGTGGCCACAGTCCCA DNA 2: TGGGACTGTGGCCACCACCACTTCCTCTCTGCTCTG | 2770 PBM fluorescence, median of replicate spots |
| Table S2 A row 1447 (dsDNA) DNA 1: ACACCTCAGGAAGTGGCAGAGACCACAACAAGTCAG DNA 2: CTGACTTGTTGTGGTCTCTGCCACTTCCTGAGGTGT | 2380 PBM fluorescence, median of replicate spots |
| Table S2 A row 294 (dsDNA) DNA 1: GCAGGACTTCCTGTGTTGTGCTAACCTCAAATTACA DNA 2: TGTAATTTGAGGTTAGCACAACACAGGAAGTCCTGC | 2660 PBM fluorescence, median of replicate spots |
| Table S2 A row 195 (dsDNA) DNA 1: GCTCCCGGATGTTCTGGGGATCTGCGGCCGCCTGGC DNA 2: GCCAGGCGGCCGCAGATCCCCAGAACATCCGGGAGC | 2440 PBM fluorescence, median of replicate spots |
